Values of other authors in publication PMC3978290.
Several values for one entry are separate records, joined by “and”; a condition that tells them apart may be missing. Equal entries are not always repeated.

Legend:
C3b C3b (Homo sapiens) = C3b C3b (Homo sapiens) (UniProt P01024); experiment: SPR
[1] = target: C-reactive protein (Homo sapiens) (UniProt P02741); experiment: SPR
C3u C3u (Homo sapiens) = C3u C3u (Homo sapiens) (UniProt P01024); experiment: sedimentation velocity
[2] = target: Complement factor H (Homo sapiens) (UniProt P08603); experiment: sedimentation equilibrium

Chain of Complement factor H (P08603 19-1231): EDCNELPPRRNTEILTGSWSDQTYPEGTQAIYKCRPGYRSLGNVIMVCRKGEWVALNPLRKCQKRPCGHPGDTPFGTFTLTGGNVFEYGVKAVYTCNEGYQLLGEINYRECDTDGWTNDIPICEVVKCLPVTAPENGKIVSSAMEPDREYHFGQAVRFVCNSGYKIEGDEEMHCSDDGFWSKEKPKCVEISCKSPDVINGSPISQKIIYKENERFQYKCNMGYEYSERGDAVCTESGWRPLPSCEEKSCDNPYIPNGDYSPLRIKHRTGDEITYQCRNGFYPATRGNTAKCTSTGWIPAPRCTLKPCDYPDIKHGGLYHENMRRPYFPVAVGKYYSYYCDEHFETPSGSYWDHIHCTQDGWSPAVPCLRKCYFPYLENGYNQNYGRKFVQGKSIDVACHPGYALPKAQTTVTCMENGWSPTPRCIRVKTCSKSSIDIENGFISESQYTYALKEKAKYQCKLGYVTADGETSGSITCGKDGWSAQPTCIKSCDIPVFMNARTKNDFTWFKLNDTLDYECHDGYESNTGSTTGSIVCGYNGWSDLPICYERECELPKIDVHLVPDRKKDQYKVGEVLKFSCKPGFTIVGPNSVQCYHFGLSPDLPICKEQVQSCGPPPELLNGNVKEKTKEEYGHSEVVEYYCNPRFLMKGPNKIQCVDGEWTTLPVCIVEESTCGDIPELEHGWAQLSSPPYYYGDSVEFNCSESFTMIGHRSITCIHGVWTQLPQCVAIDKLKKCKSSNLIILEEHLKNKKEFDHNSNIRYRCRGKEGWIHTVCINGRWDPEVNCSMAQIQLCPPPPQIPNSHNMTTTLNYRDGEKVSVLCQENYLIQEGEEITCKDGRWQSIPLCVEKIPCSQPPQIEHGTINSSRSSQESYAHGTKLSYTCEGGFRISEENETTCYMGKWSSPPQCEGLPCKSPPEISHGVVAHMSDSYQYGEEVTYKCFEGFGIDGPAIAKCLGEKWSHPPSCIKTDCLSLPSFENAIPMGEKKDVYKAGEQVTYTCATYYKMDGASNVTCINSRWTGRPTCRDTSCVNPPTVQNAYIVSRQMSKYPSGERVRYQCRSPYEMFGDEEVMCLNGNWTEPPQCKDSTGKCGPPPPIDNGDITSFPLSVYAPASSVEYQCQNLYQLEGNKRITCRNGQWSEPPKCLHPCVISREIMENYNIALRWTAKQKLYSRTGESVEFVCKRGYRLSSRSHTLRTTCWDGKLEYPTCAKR
Chain of C3b C3b (Homo sapiens) (P01024 566-670): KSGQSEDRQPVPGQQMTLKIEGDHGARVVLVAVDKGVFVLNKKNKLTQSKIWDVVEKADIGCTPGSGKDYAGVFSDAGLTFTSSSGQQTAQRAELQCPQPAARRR
Chain of Complement factor H SCR-1/4 SCR-1/4 (P08603 19-264): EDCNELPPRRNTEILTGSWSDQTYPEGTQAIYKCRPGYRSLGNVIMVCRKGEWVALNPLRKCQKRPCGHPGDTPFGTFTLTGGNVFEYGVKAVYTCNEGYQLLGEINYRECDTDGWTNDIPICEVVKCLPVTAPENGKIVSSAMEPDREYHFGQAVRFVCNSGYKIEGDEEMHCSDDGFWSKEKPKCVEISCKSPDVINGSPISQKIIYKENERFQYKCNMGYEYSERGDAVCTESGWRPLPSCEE
Chain of Complement factor H SCR-19/20 (P08603 1107-1231): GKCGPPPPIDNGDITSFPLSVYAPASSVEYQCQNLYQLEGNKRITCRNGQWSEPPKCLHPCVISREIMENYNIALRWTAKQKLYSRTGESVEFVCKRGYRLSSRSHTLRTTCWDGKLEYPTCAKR
Chain of C3u C3u (Homo sapiens) (P01024 23-667, chain 1 of 2): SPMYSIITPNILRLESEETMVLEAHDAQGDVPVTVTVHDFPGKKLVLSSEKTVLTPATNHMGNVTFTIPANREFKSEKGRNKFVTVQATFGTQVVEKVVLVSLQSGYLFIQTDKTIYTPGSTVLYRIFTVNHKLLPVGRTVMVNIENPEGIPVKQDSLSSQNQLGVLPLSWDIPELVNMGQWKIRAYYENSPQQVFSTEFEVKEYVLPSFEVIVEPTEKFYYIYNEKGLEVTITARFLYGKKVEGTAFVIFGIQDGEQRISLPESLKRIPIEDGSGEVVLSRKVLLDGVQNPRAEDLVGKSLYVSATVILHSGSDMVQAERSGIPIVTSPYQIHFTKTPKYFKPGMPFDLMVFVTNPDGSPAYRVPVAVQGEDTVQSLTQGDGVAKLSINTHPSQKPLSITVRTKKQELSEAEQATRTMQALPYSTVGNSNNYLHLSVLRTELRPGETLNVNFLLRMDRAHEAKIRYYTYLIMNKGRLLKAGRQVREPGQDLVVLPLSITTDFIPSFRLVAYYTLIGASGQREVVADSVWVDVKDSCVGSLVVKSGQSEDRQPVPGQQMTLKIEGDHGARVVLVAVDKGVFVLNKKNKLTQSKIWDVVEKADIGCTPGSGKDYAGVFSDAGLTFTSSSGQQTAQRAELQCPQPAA
Chain of C3u C3u (Homo sapiens) (P01024 672-1663, chain 2 of 2): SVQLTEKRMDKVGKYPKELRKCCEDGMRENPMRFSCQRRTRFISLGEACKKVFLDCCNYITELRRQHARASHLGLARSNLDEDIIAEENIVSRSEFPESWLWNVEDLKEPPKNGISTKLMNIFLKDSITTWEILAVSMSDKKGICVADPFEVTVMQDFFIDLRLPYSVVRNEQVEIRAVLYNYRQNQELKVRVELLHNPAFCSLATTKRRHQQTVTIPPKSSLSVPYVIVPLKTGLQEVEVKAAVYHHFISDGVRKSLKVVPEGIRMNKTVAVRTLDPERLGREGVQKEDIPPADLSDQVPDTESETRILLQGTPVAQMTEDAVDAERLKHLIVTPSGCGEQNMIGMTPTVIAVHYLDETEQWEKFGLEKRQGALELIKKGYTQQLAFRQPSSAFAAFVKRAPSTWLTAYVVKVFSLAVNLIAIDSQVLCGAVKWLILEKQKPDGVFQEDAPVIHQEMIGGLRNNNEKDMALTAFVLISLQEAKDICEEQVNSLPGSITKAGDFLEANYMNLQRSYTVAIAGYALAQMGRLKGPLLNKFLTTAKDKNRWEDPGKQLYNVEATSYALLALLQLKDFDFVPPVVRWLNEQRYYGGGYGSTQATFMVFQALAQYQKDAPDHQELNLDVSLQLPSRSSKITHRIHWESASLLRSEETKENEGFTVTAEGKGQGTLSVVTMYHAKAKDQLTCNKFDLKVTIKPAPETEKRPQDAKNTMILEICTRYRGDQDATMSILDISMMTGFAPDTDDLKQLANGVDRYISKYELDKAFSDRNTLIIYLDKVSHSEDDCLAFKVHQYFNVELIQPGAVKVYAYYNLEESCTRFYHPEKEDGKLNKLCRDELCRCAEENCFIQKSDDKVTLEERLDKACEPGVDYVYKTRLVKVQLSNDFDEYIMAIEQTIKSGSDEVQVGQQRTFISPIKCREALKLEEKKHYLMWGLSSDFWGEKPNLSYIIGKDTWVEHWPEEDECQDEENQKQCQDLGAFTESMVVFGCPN
Chain of C-reactive protein (Homo sapiens) (P02741 19-223): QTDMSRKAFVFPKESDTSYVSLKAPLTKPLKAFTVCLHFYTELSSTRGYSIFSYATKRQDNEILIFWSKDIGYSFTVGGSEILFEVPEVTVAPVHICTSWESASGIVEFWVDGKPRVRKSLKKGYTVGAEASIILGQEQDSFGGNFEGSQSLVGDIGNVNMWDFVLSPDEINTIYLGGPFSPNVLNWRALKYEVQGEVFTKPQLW

Row | Substance | Kd (C3b C3b (Homo sapiens)) | Kd [1] | Kd (C3u C3u (Homo sapiens)) | Kd [2]
1 | Complement factor H SCR-1/4 SCR-1/4 (from UniProt P08603) | 11.7 µM and 11 µM | – | – | –
2 | Complement factor H (from UniProt P08603) | 1.1 µM | 4.2 µM | 0.59 µM | 28 µM
3 | Complement factor H SCR-19/20 (from UniProt P08603) | 5.4 µM and 0.54 µM | – | – | –
